The series can be described thus: yeast display, Sf9 membrane polyspecificity reagent, FACS + sequencing; frameworks hold sequencing errors. The essentials: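 In a synthetic yeast display library (Saccharomyces cerevisiae BJ5465), nanobody expression was induced with galactose for 36–48 hours. FACS gates were set low and high (top ~1%) using anti-HA fluorescence for expression and streptavidin fluorescence for binding of the Sf9 membrane reagent. Each polyreactivity label is drawn from the gate of origin.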
Consider “QVQLVESGGGLVQAGGSLRLSCAASGFTFSPYVMGWYRQAPGKERELVATITAGGSSTFYADSVKGRFTISRDNAKNTVYLQMNSLKPEDTAVYYCNTVSPSFVYESTSDRFDYWGQGTQVTVSS”, for which the “polyreactivity (PSR sort gate)” value is “low polyreactivity”. For the sequence “QVQLVESGGGLVQAGGSLRLSCAASGFTFSQNAMGWYRQAAGKERELVAAITGDGGSTYYADSVKGRFTISRDNAKNTVFLQMNSLKPEDTAVYYCAADPSPYSAFGIYWFRYDYWGQGTQVTVSS”, the “polyreactivity (PSR sort gate)” value is “low polyreactivity”. For “QVQLVESGGGLVQAGGSLRLSCAASGFTFSRNAMGWYIQAPGKERELVAAISQSGGSTYYADSVKGRFTISRDNAKNTVYLQMNSLKPEDTAVYYCAAQSFAQYGWRYGYWGQGTQVTVSS”, the “polyreactivity (PSR sort gate)” value is “high polyreactivity”.

Consider “QVQLVESGGGLVQAGGSLRLSCAASGFTFSRYAMGWYRQAPGKERELVAAISRSGGRTSYADSVKGRFTISRDNSKNTVFLQMNSLKPEDTAVYYCAARTATGSSSSIGYGYWGQGTQVTVSS”, for which the “polyreactivity (PSR sort gate)” value is on record as “high polyreactivity”. The same measure for “QVQLVESGGGLVQAGGSLRLSCAASGFTFSSNAMGWFRQAPGKERELVAAISFSGTRTYYADSVKGRFTISRDNAKKTVYLQMNSLKPEDTAVYYCAAGRHYGPLSGRTKGMEYWGQGTQVTVSS”: “high polyreactivity”; for “QVQLVESGGGLVQAGGSLRLSCAASGFTFSSNAMGWYRQAPGKERELVAAIRSDGVRTYYADSVKGRFTISRDNAKNTVYLQMNSLKPEDTAVYYCNSVSDVRIGAGDYWGQGTQVTVSS”: “high polyreactivity”; for “QVQLVESGGGLVQAGGSLRLSCAASGFTFSSYAMGWYRQAPGKERELVAAITYRGGSTYYADSVKGRFTISRDNAKNTVYLQMNSLKPEDTAVYYCAARWGYRMYWGQGTQVTVSS”: “high polyreactivity”. In the case of “QVQLVESGGGLVQAGGSLRLSCAASGFTFSTNAMGWYRQAPGKERELVAAISPDGGTYYADSVKGRFTISRDNAKNTVYLQMNSLKPEDTAVYYCAAVWGRGVWDLYDYWGQGTQVTVSS” it was “low polyreactivity”; in that of “QVQLVESGGGLVQAGGSLRLSCAASGFTFSTYAMGWYRQAPGKESELVAAITRSGGSTYYADSVKGRFTISRDIEKNTVYLQMNSLKQEDTAVYYCATDASFYDPDLYPYGYDYWGQGTQVTVSS”, “high polyreactivity”. In the case of “QVQLVESGGGLVQAGGSLRLSCAASGFTFSVNAMGWYRQAPGKERELVADIDWSGGSTYYADSVKGRFTISRDNAKNTVYLQMNSLKPEDTAVYYCSADYYSPDSYVQGSSGEYWGQGTQVTVSS”, the “polyreactivity (PSR sort gate)” value is listed as “low polyreactivity”.

Take “QVQLVESGGGLVQAGGSLRLSCAASGFTFSWYAMGWYRQAPGKEMELVAAIDDGGSTYYADSVKGRFTISRDNAKNTVYLQMNSLKPEDTAVYYCNARGYGTLNVRRERMDYWGQGTQVTVSS”: the “polyreactivity (PSR sort gate)” value was “high polyreactivity”. Regarding “QVQLVESGGGLVQAGGSLRLSCAASGFTFSWYAMGWYRQAPGKERELVAAISSAGNTNYADSVKGRFTISRDNAKNTVYLQMNSLKPEDTAVYYCAKRDYWGQGTQVTVSS”, the “polyreactivity (PSR sort gate)” value is listed as “high polyreactivity”. The same measure for “QVQLVESGGGLVQAGGSLRLSCAASGFTFSWYAMGWYRQAPGKERELVAAITSGGGTNYADSVKGRFTISRDNAKNTVYLQMNSLKPEDTAVYYCAARGRWFYYLDDYWGQGTQVTVSS”: “low polyreactivity”; for “QVQLVESGGGLVQAGGSLRLSCAASGFTFSYNAMGWYRQAPGKERELVAAITYSAGNTYYADSVKGRFTISRDNAKNTVYLQMNSLKPEDTAVYYCNAVTKHRAITNMDYWGQGTQVTVSS”: “high polyreactivity”; for “QVQLVESGGGLVQAGGSLRLSCAASGFTFSYNTMGWYRQAPGKERELVAAISGSGARTYYADSVKGRFTISRDNAKNSVYLQMNSLKPEDTAVYYCNAKYGYDSEARIVKPVRYDYWGQGTQVTVSS”: “high polyreactivity”. In the case of “QVQLVESGGGLVQAGGSLRLSCAASGFTFSYYAMGWYIQAPGKERELVATITWGGGRTYYADSVKGRFTISRDNAKNTVYLQMNSLKPEDTAVYYCNAERTYFQYYRNYDYWGQGTKVTVSS” it was “low polyreactivity”; in that of “QVQLVESGGGLVQAGGSLRLSCAASGFTFSYYAMGWYRQAPGKERELVAAISWNGGSTYYADSVKGRFTISRDNAKNTVYLQMNSLKPEDTAVNYCAADSLLYYYDTGYEYWGQGTQVTVSS”, “high polyreactivity”; in that of “QVQLVESGGGLVQAGGSLRLSCAASGFTFSYYAMGWYRQAPGKERELVARISFSGTRTYYADSVKGRFTISRDNAKNTVYLEMNSLKPEDTAVYYCAARFGYVGITARYDYWGQGTQVTVSS”, “high polyreactivity”.

Take “QVQLVESGGGLVQAGGSLRLSCAASGFTFSYYAMGWYRQAPGKERELVATITWDGGSTYYADSVKGRFTISRDNAKNTVYLQMNSLKPEDTAVYYCAAQYYRWQTKYDYWGQGTQVTVSS”: the “polyreactivity (PSR sort gate)” value is reported as “high polyreactivity”.

Turning to “QVQLVESGGGLVQAGGSLRLSCAASGFTFSYYVMGLYRQAPGKERELVAAITSGGSTYYADSVKGRFTISRDNAKNTVYLQMNSLKPEDTAVYYCNARTYSRVTRQTYRYRPYDYWGQGTQVTVSS”, the “polyreactivity (PSR sort gate)” value is on record as “high polyreactivity”. The same measure for “QVQLVESGGGLVQAGGSLRLSCAASGFTFTAYAMGWSRQAPGKERELVAAISSGGSTYYADSVKGRFTISRDNAKNTVYLQMNSLKPEDTAVYYCAAVGVYTVKREYWGQGTQVTVSS”: “low polyreactivity”. In the case of “QVQLVESGGGLVQAGGSLRLSCAASGFTFTAYAMGWYRQAPGKERELVAAISRSGGSTSYADSVKGRFTISRDNAKNTVYLQMNSLKPEDTAVYYCAAGRVGWGQGTQVTVSS” it was “high polyreactivity”; in that of “QVQLVESGGGLVQAGGSLRLSCAASGFTFTGNAMGWYRQAPGKERELVAAITSGGRTYYADSVKGRFTISRDNAKNTVYLQMNSLIPEDTAVYYCNTAGLKRYVTFYYWGQGTQVTVSS”, “high polyreactivity”. In the case of “QVQLVESGGGLVQAGGSLRLSCAASGFTFTMNAMGWYRQAPGKERELVAGISSGGSTNYADSVKGRFTLSRDNEKNTVYLQMNSLKPEDTAVYYCAADRGYVWRYDYWGQGTQVTVSS” it was “low polyreactivity”. In the case of “QVQLVESGGGLVQAGGSLRLSCAASGFTFTNYVMGWYRQAPGKETELVAAIRRSGDSTYYADSVKGRFTISRDNAKNTVYLQMNSLKPEATAVYYCNAVAYGRTYDYWGQGTQVTVSS”, the “polyreactivity (PSR sort gate)” value is “high polyreactivity”. In the case of “QVQLVESGGGLVQAGGSLRLSCAASGFTFTRYAMGWYRQAPGKERELVAAISSRGGSTNYADSVKGRFTISRDNAKNTVYLQMNSLKPEDTAVYYCAAEYYRLRYEYDYWGQGTQVTVSS” it was “high polyreactivity”; in that of “QVQLVESGGGLVQAGGSLRLSCAASGFTFTRYAMGWYRQAPGKERELVAAISWNSGSTYYADSVKGRFTISRDNAKNTVYLQMNSLKPEDTAVYYCAAAFLRVYYGYTGAFDYWGQGTQVTVSS”, “high polyreactivity”. “QVQLVESGGGLVQAGGSLRLSCAASGFTFTSYVMGWYRQAPGKEREFVAAITRSAGGTYYADSVKGRFTISRDNAQNTFYLQINSLKPEDTAVYYCAAEYYVPGGGAYRGDYWGQGTQVTGSS”: the “polyreactivity (PSR sort gate)” value is on record as “high polyreactivity”. In the case of “QVQLVESGGGLVQAGGSLRLSCAASGFTFTWYAMGWYRPAPGKERELVAAISSGGGRTYYADSVKGRFTISRDNAKNTVYLQMNSLKPEDTAVYYCNKVSSFGYYYWGQGTQVTVSS” it was “high polyreactivity”; in that of “QVQLVESGGGLVQAGGSLRLSCAASGFTFTWYAMGWYRQAPGKERELVATISRSGGRTYYADSVKGRFTISRDNAKNPVYLQMNSLKPEVTAVYYCAADTRNYPRYDYWGQGTQVTVSS”, “high polyreactivity”. In the case of “QVQLVESGGGLVQAGGSLRLSCAASGFTFTWYAMGWYRQAPGKERELVATISRSGGRTYYADSVKGRFTISRDNAKNTVYLQMNSLKPEDTAVYYCAADTRNYPRYDYWGQGTQVTVSS”, the “polyreactivity (PSR sort gate)” value is recorded as “high polyreactivity”. The same measure for “QVQLVESGGGLVQAGGSLRLSCAASGFTFTYNAMGWYRQAPGKERELVAAITANGGGTNYADSVKGRFTISRDNEKNTVYLQMNSLKPEDTAVYYCAATIVVAVFESLGFYWYTEDNYWGQGTQVTVSS”: “low polyreactivity”.

Consider “QVQLVESGGGLVQAGGSLRLSCAASGFTFTYNAMGWYRQAPGKERELVAAITLSGGSTYADSVKGRFTISRDNAKNTVYLQMNSLKPEDTAVYYCNADAGVYSANATDGYDYWGQGTQVTVSS”, for which the “polyreactivity (PSR sort gate)” value is recorded as “low polyreactivity”. In the case of “QVQLVESGGGLVQAGGSLRLSCAASGFTFTYYAMGWYRQAPGKERELVAAITKSGGSTYYADSVKGRFTISRDNAKNTVYFQMNSLKPEDTAVYYCAADTRYGRERYYWGQGTQVTVSS” it was “high polyreactivity”. In the case of “QVQLVESGGGLVQAGGSLRLSCAASGFTFTYYTMGWYRQAPGKERELVAAISWSGSSTYYADSVKGRFTISRDNAKNTVYLQMNSLKPEDTAVYYCAAKYRGKYYYWGQGTQVTVSS” it was “high polyreactivity”. The same measure for “QVQLVESGGGLVQAGGSLRLSCAASGFTFVAYAMGWYRQAPGKERELVAALRRTGGSSSYADSVKGRFTISRDIAKNTVYLQMNRLKPEDTSVYYCNKVRLISGVYWSYQAFGYWGQGTQVTVSS”: “high polyreactivity”; for “QVQLVESGGGLVQAGGSLRLSCAASGFTFVEYAMGWYRQAPGKERELVASIRRSGGRTYYADSVKGRFTISRDNAKNTVYLQMNSLKPEDTAVYYCAKSVPRYYSKSGLAYEFDYWGQGTQVTVSS”: “low polyreactivity”. As to “QVQLVESGGGLVQAGGSLRLSCAASGFTFVFYAMGWYRQAPGKERELVAGISRTGGSTYYADSVKGRFTISRDNAKNTVYLQMNSLKPEDTAVYYCNAARFTRRDYWGQGTQVTVSS”, the “polyreactivity (PSR sort gate)” value is listed as “high polyreactivity”.

For the sequence “QVQLVESGGGLVQAGGSLRLSCAASGFTFVGNAMGWYRQAPGKERELVATITSGGNTKYADSVKGRFTISRDNAKNTVYLQMNSLKPEDTAVYYCAAAKYNYRRFNSWGQGTQVTVSS”, the “polyreactivity (PSR sort gate)” value is “low polyreactivity”. The same measure for “QVQLVESGGGLVQAGGSLRLSCAASGFTFVINDMGWYRQAPGKERELVADITSGGDTYYADSVKGRFTISRDNAKNTVYLQLNSLKPEDTAVYYCAADIYPDWIYLLYGYWGQGTQVTVSS”: “low polyreactivity”.

Source of the values: the nanobody polyreactivity screen of Harvey et al. (2022).
